PMC8511506 (2021)

B1: CYLD CAP-Gly2 (aa 226-313) (domain or fragment)
chain: ELPPLEINSRVSLKVGETIESGTVIFCDVLPGKESLGYFVGVDMDNPIGNWDGRFDGVQLCSFACVESTILLHINDIIPALSESVTQE
B2: CYLD CAP-Gly3 (aa 460-582) (domain or fragment)
chain: LAMPPGNSHGLEVGSLAEVKENPPFYGVIRWIGQPPGLNEVLAGLELEDECAGCTDGTFRGTRYFTCALKKALFVKLKSCRPDSRFASLQPVSNQIERCNSLAFGGYLSEVVEENTPPKMEKE

Target: Ubiquitin (UniProt P0CG47 1-76)
Assay: ITC

Row | Binder | Kd [µM]
1 | B1 | 136
2 | B2 | 319
